This note sets out measurements from US20080274950A1 (BABRAHAM INSTITUTE, published 2008).

Data set [1] concerns the molecule itself. Briefly: disulphide-bonded cis-dimers on the cell surface; non-reducing SDS-PAGE and immunoblot.
In data set [2] the target is T1, human N-cadherin naturally expressed on DX3 melanoma cells (human, UniProt P19022 160-906).
T1 construct: also called DX3 Cells; N-cadherin+ve DX3 melanoma cells
T1 sequence: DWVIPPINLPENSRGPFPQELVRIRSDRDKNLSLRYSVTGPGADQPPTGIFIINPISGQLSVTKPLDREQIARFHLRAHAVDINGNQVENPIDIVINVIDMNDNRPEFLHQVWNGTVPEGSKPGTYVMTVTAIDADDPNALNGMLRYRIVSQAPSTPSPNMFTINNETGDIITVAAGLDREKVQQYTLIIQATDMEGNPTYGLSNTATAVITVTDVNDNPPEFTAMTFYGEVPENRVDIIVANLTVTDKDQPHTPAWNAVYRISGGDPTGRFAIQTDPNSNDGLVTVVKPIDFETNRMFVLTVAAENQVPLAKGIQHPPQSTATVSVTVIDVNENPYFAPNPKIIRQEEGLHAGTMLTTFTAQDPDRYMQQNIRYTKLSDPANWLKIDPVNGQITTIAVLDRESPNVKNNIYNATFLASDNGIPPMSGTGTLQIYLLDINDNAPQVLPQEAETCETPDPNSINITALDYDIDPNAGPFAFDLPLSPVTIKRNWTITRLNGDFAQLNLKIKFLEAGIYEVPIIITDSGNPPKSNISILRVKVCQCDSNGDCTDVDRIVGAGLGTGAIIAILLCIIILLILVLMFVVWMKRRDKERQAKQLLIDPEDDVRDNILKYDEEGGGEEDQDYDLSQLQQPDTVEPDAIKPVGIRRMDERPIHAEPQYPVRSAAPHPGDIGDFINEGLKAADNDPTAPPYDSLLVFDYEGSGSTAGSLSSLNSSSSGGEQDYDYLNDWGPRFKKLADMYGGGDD
Briefly: adhesion of DX3 cells to coated monomeric N-cadherin-Fc, oxidising buffer. The procedure: Monomeric or dimeric N-cadherin-Fc fusion protein in Cos cell supernatants was added as described for the ELISA assay. DX3 Cells, a human melanoma cell line which expresses N-cadherin, were dissociated with Cell Dissociation Solution (Sigma, code C5789), resuspended in HBSS with 2% FCS and assessed for adhesion to wild type or mutant N-cadherin-Fc as previously described (Corps et al., 2001). Microscopic examination established that the cells were present as a single cell suspension as they settled onto the plate. For assays conducted in reducing conditions, 10 mM DTT was present during the adhesion and washing steps. Determinations were conducted in triplicate and results are presented as mean +/−sem.

In data set [3] the target is T2, full length chicken N-cadherin with the N-terminus extended by two glycine residues (GG) expressed on K562 … (chicken, UniProt P10288 165-912).
T2 construct: whole, on cells; also called cells expressing the GG N-terminal extension mutant; K562 GG
T2 sequence: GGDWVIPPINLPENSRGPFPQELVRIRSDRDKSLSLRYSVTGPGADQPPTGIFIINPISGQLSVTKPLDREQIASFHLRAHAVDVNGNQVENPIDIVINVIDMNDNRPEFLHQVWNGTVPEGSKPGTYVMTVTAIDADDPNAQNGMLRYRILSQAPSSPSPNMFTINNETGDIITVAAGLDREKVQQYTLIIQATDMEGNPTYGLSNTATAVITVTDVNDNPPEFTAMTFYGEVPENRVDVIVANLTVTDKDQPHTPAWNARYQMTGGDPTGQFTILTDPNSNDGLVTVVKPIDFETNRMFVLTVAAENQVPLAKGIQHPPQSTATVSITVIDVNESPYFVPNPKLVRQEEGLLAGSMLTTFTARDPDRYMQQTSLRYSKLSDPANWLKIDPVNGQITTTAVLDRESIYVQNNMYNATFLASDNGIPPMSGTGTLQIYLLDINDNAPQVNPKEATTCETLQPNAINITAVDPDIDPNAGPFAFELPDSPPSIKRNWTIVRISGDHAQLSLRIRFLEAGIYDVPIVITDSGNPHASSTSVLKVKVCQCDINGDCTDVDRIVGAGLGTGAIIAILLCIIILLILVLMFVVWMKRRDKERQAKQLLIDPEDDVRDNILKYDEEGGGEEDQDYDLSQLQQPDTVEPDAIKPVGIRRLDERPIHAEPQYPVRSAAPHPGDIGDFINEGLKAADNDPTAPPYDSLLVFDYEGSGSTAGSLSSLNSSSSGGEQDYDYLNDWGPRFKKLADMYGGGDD
Briefly: adhesion of K562 transfectants to coated N-cadherin Fc. The procedure:
Adhesion tests were conducted substantially as described in Example 1. Briefly, K562 Cells or L cells transfected with wild type or mutant N-cadherin were allowed to settle for 45 minutes at 37° C. onto N-cadherin Fc fusion proteins coated at 1 μg/ml to a 96 well plate. Non-adherent cells were then washed off and residual adherent cells were quantitated by measuring acid phosphatase activity. Assays were conducted in quadruplicate and results are expressed as % cells adhering +/−SEM.

Data set [4] deals with the molecule itself. Briefly: bead aggregation assay, 1.25 mM CaCl2. Here is the method:
Dynabeads (Dynal Biotech) coupled to Protein A were coated with N-cadherin Fc at 1 μg/ml in calcium and magnesium-free HBSS containing 0.1% Tween 20, 1% FCS and 4 mM EDTA. Eppendorf tubes containing beads and fusion protein were rotated slowly for 1 hour at room temperature to allow binding to take place. The beads were then washed in the above assay buffer lacking EDTA and then resuspended in the same buffer supplemented with 1.25 mM CaCl₂. Beads were allowed to aggregate in a volume of 100 μl for 2 hours at 37° C. by slow rotation, in an eppendorf tube, at approximately 20 rpm. Aggregation was then assessed by light microscopy.
In the experiments described so far in this example, disruption of the salt bridge prevented intramolecular docking of Trp 2 in one or both components of the dimer. In an alternative strategy to prevent intramolecular docking, we removed Trp2 by introducing the mutation W2G or blocked the hydrophobic acceptor pocket with an isoleucine side chain projecting into the cavity using the mutation A801. N-cadherin Fc fusion proteins with these mutations were then tested against our panel of K562 transfectants (FIG. 17a). In keeping with the explanation given in FIG. 5, the W2G mutant acted as a strand acceptor and therefore adhered strongly to the E89A mutant whereas the A80I mutant was a strand donor and adhered to the GG extension mutant. […] In contrast, beads coated with the W2G or A801 mutants and tested separately clustered in twos and threes, whereas beads coated with the negative control mutant, D134A, were entirely monodisperse. To test whether all five extracellular domains of N-cadherin (EC1-EC5) are necessary for the strong adhesive interaction between the complementary mutants, we compared the adhesive activity of the W2G mutant prepared as a full length (EC1-EC5) Fc fusion protein with that of the same mutant prepared as a truncated construct containing only cadherin domains EC1 and EC2.

B1: full length chicken N-cadherin with the mutation D1C expressed on K562 cells (receptor, UniProt P10288 165-912, looked up)
chain: CWVIPPINLPENSRGPFPQELVRIRSDRDKSLSLRYSVTGPGADQPPTGIFIINPISGQLSVTKPLDREQIASFHLRAHAVDVNGNQVENPIDIVINVIDMNDNRPEFLHQVWNGTVPEGSKPGTYVMTVTAIDADDPNAQNGMLRYRILSQAPSSPSPNMFTINNETGDIITVAAGLDREKVQQYTLIIQATDMEGNPTYGLSNTATAVITVTDVNDNPPEFTAMTFYGEVPENRVDVIVANLTVTDKDQPHTPAWNARYQMTGGDPTGQFTILTDPNSNDGLVTVVKPIDFETNRMFVLTVAAENQVPLAKGIQHPPQSTATVSITVIDVNESPYFVPNPKLVRQEEGLLAGSMLTTFTARDPDRYMQQTSLRYSKLSDPANWLKIDPVNGQITTTAVLDRESIYVQNNMYNATFLASDNGIPPMSGTGTLQIYLLDINDNAPQVNPKEATTCETLQPNAINITAVDPDIDPNAGPFAFELPDSPPSIKRNWTIVRISGDHAQLSLRIRFLEAGIYDVPIVITDSGNPHASSTSVLKVKVCQCDINGDCTDVDRIVGAGLGTGAIIAILLCIIILLILVLMFVVWMKRRDKERQAKQLLIDPEDDVRDNILKYDEEGGGEEDQDYDLSQLQQPDTVEPDAIKPVGIRRLDERPIHAEPQYPVRSAAPHPGDIGDFINEGLKAADNDPTAPPYDSLLVFDYEGSGSTAGSLSSLNSSSSGGEQDYDYLNDWGPRFKKLADMYGGGDD
notes: whole, on cells; also called D1C cells; K562 D1C
Turning to B1, the binding result in data set [1] is “binds”.

B2: full length chicken N-cadherin with the mutation D27C expressed on K562 cells (receptor, UniProt P10288 165-912, looked up)
chain: DWVIPPINLPENSRGPFPQELVRIRSCRDKSLSLRYSVTGPGADQPPTGIFIINPISGQLSVTKPLDREQIASFHLRAHAVDVNGNQVENPIDIVINVIDMNDNRPEFLHQVWNGTVPEGSKPGTYVMTVTAIDADDPNAQNGMLRYRILSQAPSSPSPNMFTINNETGDIITVAAGLDREKVQQYTLIIQATDMEGNPTYGLSNTATAVITVTDVNDNPPEFTAMTFYGEVPENRVDVIVANLTVTDKDQPHTPAWNARYQMTGGDPTGQFTILTDPNSNDGLVTVVKPIDFETNRMFVLTVAAENQVPLAKGIQHPPQSTATVSITVIDVNESPYFVPNPKLVRQEEGLLAGSMLTTFTARDPDRYMQQTSLRYSKLSDPANWLKIDPVNGQITTTAVLDRESIYVQNNMYNATFLASDNGIPPMSGTGTLQIYLLDINDNAPQVNPKEATTCETLQPNAINITAVDPDIDPNAGPFAFELPDSPPSIKRNWTIVRISGDHAQLSLRIRFLEAGIYDVPIVITDSGNPHASSTSVLKVKVCQCDINGDCTDVDRIVGAGLGTGAIIAILLCIIILLILVLMFVVWMKRRDKERQAKQLLIDPEDDVRDNILKYDEEGGGEEDQDYDLSQLQQPDTVEPDAIKPVGIRRLDERPIHAEPQYPVRSAAPHPGDIGDFINEGLKAADNDPTAPPYDSLLVFDYEGSGSTAGSLSSLNSSSSGGEQDYDYLNDWGPRFKKLADMYGGGDD
notes: whole, on cells; also called K562 D27C
B2: in data set [1], the binding result is listed as “binds”.

B3: monomeric chicken N-cadherin-Fc with the mutation D27C (Fc fusion, UniProt P10288 165-728, looked up)
chain: DWVIPPINLPENSRGPFPQELVRIRSCRDKSLSLRYSVTGPGADQPPTGIFIINPISGQLSVTKPLDREQIASFHLRAHAVDVNGNQVENPIDIVINVIDMNDNRPEFLHQVWNGTVPEGSKPGTYVMTVTAIDADDPNAQNGMLRYRILSQAPSSPSPNMFTINNETGDIITVAAGLDREKVQQYTLIIQATDMEGNPTYGLSNTATAVITVTDVNDNPPEFTAMTFYGEVPENRVDVIVANLTVTDKDQPHTPAWNARYQMTGGDPTGQFTILTDPNSNDGLVTVVKPIDFETNRMFVLTVAAENQVPLAKGIQHPPQSTATVSITVIDVNESPYFVPNPKLVRQEEGLLAGSMLTTFTARDPDRYMQQTSLRYSKLSDPANWLKIDPVNGQITTTAVLDRESIYVQNNMYNATFLASDNGIPPMSGTGTLQIYLLDINDNAPQVNPKEATTCETLQPNAINITAVDPDIDPNAGPFAFELPDSPPSIKRNWTIVRISGDHAQLSLRIRFLEAGIYDVPIVITDSGNPHASSTSVLKVKVCQCDINGDCTDVDRIVGAGLGT
notes: extracellular domain; not shown: hinge region, CH2 and CH3 domains of human IgG1 heavy chain (vector pIgSig)
B3: in data set [2], the binding result is “binds”.

B4: chicken N-cadherin Fc fusion protein with the pocket-blocking mutation A80I (Fc fusion, UniProt P10288 165-728, looked up)
chain: DWVIPPINLPENSRGPFPQELVRIRSDRDKSLSLRYSVTGPGADQPPTGIFIINPISGQLSVTKPLDREQIASFHLRAHIVDVNGNQVENPIDIVINVIDMNDNRPEFLHQVWNGTVPEGSKPGTYVMTVTAIDADDPNAQNGMLRYRILSQAPSSPSPNMFTINNETGDIITVAAGLDREKVQQYTLIIQATDMEGNPTYGLSNTATAVITVTDVNDNPPEFTAMTFYGEVPENRVDVIVANLTVTDKDQPHTPAWNARYQMTGGDPTGQFTILTDPNSNDGLVTVVKPIDFETNRMFVLTVAAENQVPLAKGIQHPPQSTATVSITVIDVNESPYFVPNPKLVRQEEGLLAGSMLTTFTARDPDRYMQQTSLRYSKLSDPANWLKIDPVNGQITTTAVLDRESIYVQNNMYNATFLASDNGIPPMSGTGTLQIYLLDINDNAPQVNPKEATTCETLQPNAINITAVDPDIDPNAGPFAFELPDSPPSIKRNWTIVRISGDHAQLSLRIRFLEAGIYDVPIVITDSGNPHASSTSVLKVKVCQCDINGDCTDVDRIVGAGLGT
notes: extracellular domain; also called A80I mutant; not shown: hinge region, CH2 and CH3 domains of human IgG1 heavy chain (vector pIgSig)
As to B4, the binding result in data set [3] and in data set [4] was “binds” in each case.

B5: chicken N-cadherin Fc fusion protein with the mutations E89A and D134A (Fc fusion, UniProt P10288 165-728, looked up)
chain: DWVIPPINLPENSRGPFPQELVRIRSDRDKSLSLRYSVTGPGADQPPTGIFIINPISGQLSVTKPLDREQIASFHLRAHAVDVNGNQVANPIDIVINVIDMNDNRPEFLHQVWNGTVPEGSKPGTYVMTVTAIAADDPNAQNGMLRYRILSQAPSSPSPNMFTINNETGDIITVAAGLDREKVQQYTLIIQATDMEGNPTYGLSNTATAVITVTDVNDNPPEFTAMTFYGEVPENRVDVIVANLTVTDKDQPHTPAWNARYQMTGGDPTGQFTILTDPNSNDGLVTVVKPIDFETNRMFVLTVAAENQVPLAKGIQHPPQSTATVSITVIDVNESPYFVPNPKLVRQEEGLLAGSMLTTFTARDPDRYMQQTSLRYSKLSDPANWLKIDPVNGQITTTAVLDRESIYVQNNMYNATFLASDNGIPPMSGTGTLQIYLLDINDNAPQVNPKEATTCETLQPNAINITAVDPDIDPNAGPFAFELPDSPPSIKRNWTIVRISGDHAQLSLRIRFLEAGIYDVPIVITDSGNPHASSTSVLKVKVCQCDINGDCTDVDRIVGAGLGT
notes: extracellular domain; also called D134A in combination with E89A; not shown: hinge region, CH2 and CH3 domains of human IgG1 heavy chain (vector pIgSig)
As to B5, the binding result in data set [3] is “no binding (tested: Fc fusion protein coated at 1 µg/ml)”.
